# Measured values taken from patent publication US20200199241A1 (Chugai, published 2020).
# Numbering of substitutions follows the chain as printed.
# T1: FcγRIIb (human, UniProt P31994 43-217, limits assumed)
# T1 construct: also called FcgRIIb; FcγIIB
# T1 sequence: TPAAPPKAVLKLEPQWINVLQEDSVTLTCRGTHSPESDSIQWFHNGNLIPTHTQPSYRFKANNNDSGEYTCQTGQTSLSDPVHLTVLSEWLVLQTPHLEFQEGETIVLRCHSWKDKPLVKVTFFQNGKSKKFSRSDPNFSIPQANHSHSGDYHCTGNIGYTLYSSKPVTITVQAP
# T2: FcγRIIa type H (human, UniProt P12318 36-217)
# T2 construct: also called FcγRIIaH; FcγRIIH
# T2 sequence: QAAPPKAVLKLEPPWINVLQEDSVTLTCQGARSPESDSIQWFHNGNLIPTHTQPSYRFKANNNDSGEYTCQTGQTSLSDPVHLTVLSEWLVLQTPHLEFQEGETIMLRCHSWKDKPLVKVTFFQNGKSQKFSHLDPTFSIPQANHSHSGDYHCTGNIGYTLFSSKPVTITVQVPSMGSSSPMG
# B1: IL6R-BP087/IL6R-L (antibody, human IgG1)
# heavy: QVQLQESGPGLVKPSETLSLTCAVSGHSISHDHAWSWVRQPPGEGLEWIGFISYSGITNYNPSLQGRVTISRDNSKNTLYLQMNSLRAEDTAVYYCARSLARTTAMDYWGEGTLVTVSSASTKGPSVFPLAPSSKSTSGGTAALGCLVKDYFPEPVTVSWNSGALTSGVHTFPAVLQSSGLYSLSSVVTVPSSSLGTQTYICNVNHKPSNTKVDKKVEPKSCDKTHTCPPCPAPEYLGGDSVFLFPPKPKDTLMISRTPEVTCVVVDVSHEDPEVKFNWYVDGVEVHNAKTKPREEQYNSTYRVVSVLTVLHQDWLNGKEYKCKVSNKALPKPIEKTISKAKGQPREPQVYTLPPSRDELTKNQVSLTCLVKGFYPSDIAVEWESNGQPENNYKTTPPVLDSDGSFFLYSKLTVDKSRWQQGNVFSCSVMHEALHNHYTQESLSLSP
# light: DIQMTQSPSSLSASVGDRVTITCRASQDISSYLNWYQQKPGKAPKLLIYYTSRLHSGVPSRFSGSGSGTDFTFTISSLQPEDIATYYCQQGNTLPYTFGQGTKVEIK
# notes: IgG1; Fc variant of IL6R-B3; copies: 2 + 2
# B2: IL6R-BP129/IL6R-L (antibody, human IgG1)
# heavy: B1 heavy with E235D, Y236L, Y298D
# light: B1 light
# notes: as for B1
# B3: IL6R-BP133/IL6R-L (antibody, human IgG1)
# heavy: B1 heavy with E235D
# light: B1 light
# notes: as for B1
# B4: IL6R-BP196/IL6R-L (antibody, human IgG1)
# heavy: B1 heavy with H270D, P273G, K328A
# light: B1 light
# notes: as for B1
# B5: IL6R-BP177/IL6R-L (antibody, human IgG1)
# heavy: B1 heavy with E235D, G239D, P273G, K328D
# light: B1 light
# notes: as for B1
# B6: IL6R-BP192/IL6R-L (antibody, human IgG1)
# heavy: B1 heavy with E235D, Y236L, H270D, P273G, Y298D
# light: B1 light
# notes: as for B1
# B7: IL6R-BP145/IL6R-L (antibody, human IgG1)
# heavy: B1 heavy with G239D, K332A
# light: B1 light
# notes: as for B1
# B8: IL6R-BP184/IL6R-L (antibody, human IgG1)
# heavy: B1 heavy with E235D, Y236L, P273G
# light: B1 light
# notes: as for B1
# B9: IL6R-BP180/IL6R-L (antibody, human IgG1)
# heavy: B1 heavy with Y236L, G239D, P273G
# light: B1 light
# notes: as for B1
# B10: IL6R-BP186/IL6R-L (antibody, human IgG1)
# heavy: B1 heavy with E235D, G239D, P273G, Y298D, K328A
# light: B1 light
# notes: as for B1
# B11: IL6R-BP132/IL6R-L (antibody, human IgG1)
# heavy: B1 heavy with E235D, Y236L, K328A
# light: B1 light
# notes: as for B1
# B12: IL6R-BP198/IL6R-L (antibody, human IgG1)
# heavy: B1 heavy with E235D, H270D, P273G, K328A
# light: B1 light
# notes: as for B1
# B13: IL6R-BP187/IL6R-L (antibody, human IgG1)
# heavy: B1 heavy with P273G, K328A
# light: B1 light
# notes: as for B1
# B14: IL6R-BP189/IL6R-L (antibody, human IgG1)
# heavy: B1 heavy with Y236L, G239D, H270D, P273G, K328A
# light: B1 light
# notes: as for B1
# B15: IL6R-BP089/IL6R-L (antibody, human IgG1)
# heavy: B1 heavy with K328A
# light: B1 light
# notes: as for B1
# B16: IL6R-BP197/IL6R-L (antibody, human IgG1)
# heavy: B1 heavy with E235D, G239D, H270D, P273G, Y298D, K328D
# light: B1 light
# notes: as for B1
# B17: IL6R-BP144/IL6R-L (antibody, human IgG1)
# heavy: B1 heavy with Y236L, G239D, K328A, K332A
# light: B1 light
# notes: as for B1
# B18: IL6R-BP148/IL6R-L (antibody, human IgG1)
# heavy: B1 heavy with E235D, G239D, K328A
# light: B1 light
# notes: as for B1
# B19: IL6R-BP179/IL6R-L (antibody, human IgG1)
# heavy: B1 heavy with Y236L, G239D, P273G, K328A
# light: B1 light
# notes: as for B1
# B20: IL6R-BP183/IL6R-L (antibody, human IgG1)
# heavy: B1 heavy with E235D, P273G, K328A
# light: B1 light
# notes: as for B1
# B21: IL6R-BP150/IL6R-L (antibody, human IgG1)
# heavy: B1 heavy with G239D, K328A, K332R
# light: B1 light
# notes: as for B1
# B22: IL6R-BP185/IL6R-L (antibody, human IgG1)
# heavy: B1 heavy with E235D, G239D, P273G, K328A
# light: B1 light
# notes: as for B1
# B23: IL6R-BP143/IL6R-L (antibody, human IgG1)
# heavy: B1 heavy with K328A, K332A
# light: B1 light
# notes: as for B1
# B24: IL6R-BP088/IL6R-L (antibody, human IgG1)
# heavy: B1 heavy with Y236L, G239D, K328A
# light: B1 light
# notes: as for B1
# B25: IL6R-BP149/IL6R-L (antibody, human IgG1)
# heavy: B1 heavy with E235D, G239D, Y298D, K328A
# light: B1 light
# notes: as for B1
# B26: IL6R-BP194/IL6R-L (antibody, human IgG1)
# heavy: B1 heavy with E235D, G239D, H270D, P273G, K328A
# light: B1 light
# notes: as for B1
# Biological target: T1, FcγRIIb
# Experiment: SPR (Biacore), bound amount, IL6R-BF648/IL6R-L = 100
row,relative binding activity,Binder
1,137 % of control,B1
2,138 % of control,B2
3,137 % of control,B3
4,157 % of control,B4
5,177 % of control,B5
6,172 % of control,B6
7,152 % of control,B7
8,171 % of control,B8
9,179 % of control,B9
10,175 % of control,B10
11,150 % of control,B11
12,164 % of control,B12
13,157 % of control,B13
14,177 % of control,B14
15,147 % of control,B15
16,179 % of control,B16
17,121 % of control,B17
18,176 % of control,B18
19,177 % of control,B19
20,164 % of control,B20
21,183 % of control,B21
22,179 % of control,B22
23,133 % of control,B23
24,161 % of control,B24
25,173 % of control,B25
26,178 % of control,B26

# Biological target: T3, FcγRIa (human, UniProt P12314 16-292, limits assumed)
# T3 construct: also called FcgRIa; CD64
# Experiment: as above
# T3 sequence (P12314 16-292 limits assumed): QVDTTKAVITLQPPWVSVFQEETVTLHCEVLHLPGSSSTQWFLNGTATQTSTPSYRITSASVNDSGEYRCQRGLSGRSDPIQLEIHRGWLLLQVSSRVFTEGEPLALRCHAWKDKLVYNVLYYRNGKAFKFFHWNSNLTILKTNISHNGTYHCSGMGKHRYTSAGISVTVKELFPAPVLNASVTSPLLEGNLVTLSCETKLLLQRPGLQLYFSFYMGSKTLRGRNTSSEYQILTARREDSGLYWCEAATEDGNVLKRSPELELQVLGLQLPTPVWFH
row,relative binding activity,Binder
1,33 % of control,B1
2,68 % of control,B2
3,41 % of control,B3
4,89 % of control,B4
5,57 % of control,B5
6,109 % of control,B6
7,41 % of control,B7
8,96 % of control,B8
9,29 % of control,B9
10,43 % of control,B10
11,91 % of control,B11
12,104 % of control,B12
13,68 % of control,B13
14,56 % of control,B14
15,43 % of control,B15
16,71 % of control,B16
17,64 % of control,B17
18,33 % of control,B18
19,39 % of control,B19
20,83 % of control,B20
21,30 % of control,B21
22,47 % of control,B22
23,86 % of control,B23
24,25 % of control,B24
25,29 % of control,B25
26,69 % of control,B26

# Biological target: T2, FcγRIIa type H
# Experiment: as above
row,relative binding activity,Binder
1,179 % of control,B1
2,98 % of control,B2
3,151 % of control,B3
4,195 % of control,B4
5,409 % of control,B5
6,122 % of control,B6
7,224 % of control,B7
8,131 % of control,B8
9,203 % of control,B9
10,368 % of control,B10
11,130 % of control,B11
12,188 % of control,B12
13,205 % of control,B13
14,183 % of control,B14
15,186 % of control,B15
16,294 % of control,B16
17,108 % of control,B17
18,462 % of control,B18
19,226 % of control,B19
20,191 % of control,B20
21,770 % of control,B21
22,446 % of control,B22
23,143 % of control,B23
24,166 % of control,B24
25,401 % of control,B25
26,395 % of control,B26

# Biological target: T4, FcγRIIIa type V (human, UniProt P08637 17-208, limits assumed)
# T4 construct: also called FcγRIIIaV; FcgRIIIaV
# Experiment: as above
# T4 sequence (P08637 other isoform, or with tags, fused parts or gaps limits assumed): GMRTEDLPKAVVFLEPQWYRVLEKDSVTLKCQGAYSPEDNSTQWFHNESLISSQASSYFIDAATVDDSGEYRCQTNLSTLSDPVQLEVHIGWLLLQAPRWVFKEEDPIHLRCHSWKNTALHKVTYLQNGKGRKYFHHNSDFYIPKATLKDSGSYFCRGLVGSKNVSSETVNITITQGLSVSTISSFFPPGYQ
row,relative binding activity,Binder
1,158 % of control,B1
2,95 % of control,B2
3,114 % of control,B3
4,137 % of control,B4
5,186 % of control,B5
6,118 % of control,B6
7,153 % of control,B7
8,106 % of control,B8
9,100 % of control,B9
10,143 % of control,B10
11,120 % of control,B11
12,157 % of control,B12
13,124 % of control,B13
14,141 % of control,B14
15,136 % of control,B15
16,206 % of control,B16
17,128 % of control,B17
18,227 % of control,B18
19,125 % of control,B19
20,113 % of control,B20
21,204 % of control,B21
22,191 % of control,B22
23,114 % of control,B23
24,122 % of control,B24
25,186 % of control,B25
26,249 % of control,B26
